Positions count from the first letter of the chain named. Each block holds one binder with its values, some of them ahead of it.
What was measured:
Human IL-33 Flag®His [1] = biological target: T1, Human IL-33 Flag®His (human); assay: cell-based or functional assay
T1 chain: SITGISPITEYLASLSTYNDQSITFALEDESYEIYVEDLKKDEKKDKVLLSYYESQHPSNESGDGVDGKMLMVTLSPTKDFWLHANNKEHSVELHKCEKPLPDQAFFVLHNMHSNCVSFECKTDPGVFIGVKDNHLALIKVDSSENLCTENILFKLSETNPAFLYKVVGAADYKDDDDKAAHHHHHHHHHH

Human IL-33 Flag®His [2] = biological target: T1, Human IL-33 Flag®His; assay: HTRF competition, IgG titrated against biotinylated human ST2-Fc
Method: The ability of anti-IL-33 antibodies to inhibit the binding of FLAG®-His tagged IL-33 to the ST2 receptor was assessed in a biochemical HTRF® (Homogeneous Time-Resolved Fluorescence, Cisbio International) competition assay, the principles of which are described above.
Activity of purified IgG preparations were determined by competing a dilution series of the purified IgG against biotinylated human or mouse ST2.Fc for binding to FLAG® His-tagged human, cynomolgus or mouse IL-33.
Purified or unpurified anti-IL-33 antibody samples were tested for inhibition of FLAG®-His tagged IL-33 binding ST2-Fc by adding 10 microlitres of each dilution of antibody test sample to a 384 well low volume assay plate (Costar 3676). Next, a solution containing 4 nM biotinylated human or mouse ST2-Fc and 20 nM streptavidin XL665 detection (Cisbio International, 611SAXLB) was prepared and 5 microlitres of the mix added to the assay plate. This was followed by the addition of 5 microlitres of a solution containing 1.2 nM FLAG®-His tagged human, cynomolgus or mouse IL-33 combined with 1.72 nM anti-FLAG® cryptate detection (Cisbio International, 61FG2KLB). All dilutions were performed in assay buffer comprised of Dulbeccos PBS (Invitrogen, 14190185) containing 0.8 M potassium fluoride (BDH 103444T) and 0.1% BSA (Sigma A9576). Assay plates were incubated for 2 hour at room temperature followed by 16 hour at 4° C. before reading time resolved fluorescence at 620 nm and 665 nm emission wavelengths using an EnVision plate reader (Perkin Elmer).

[3] = biological target: T2, Human IL-33 (Axxora/Adipogen AG-40B-0038) (human, UniProt O95760 112-270, limits assumed); assay: cell-based or functional assay
T2 sequence (looked up): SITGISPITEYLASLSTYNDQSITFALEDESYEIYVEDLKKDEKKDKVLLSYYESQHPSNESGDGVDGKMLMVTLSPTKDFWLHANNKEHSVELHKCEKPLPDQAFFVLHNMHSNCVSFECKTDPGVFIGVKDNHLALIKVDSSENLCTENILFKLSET

[4] = biological target: T3, Cynomolgus IL-33 Flag®His (cynomolgus monkey); assay: ELISA, biotinylated antigen on streptavidin plate, anti-human IgG HRP
T3 construct: C-terminal FLAG 10xHis tag, E. coli; also called Mature Cynomolugus IL-33; cyno IL-33 FH
T3 chain: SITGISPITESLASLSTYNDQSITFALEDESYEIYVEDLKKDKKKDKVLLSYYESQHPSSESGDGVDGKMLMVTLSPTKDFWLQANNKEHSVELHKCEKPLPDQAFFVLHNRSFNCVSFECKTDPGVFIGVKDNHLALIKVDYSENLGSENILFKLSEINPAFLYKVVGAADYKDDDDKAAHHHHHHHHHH
Method: (§1) 96-well Greiner polypropylene plates (Greiner, 650201) were used for dilution preparation. Generally, each dilution was prepared in duplicate. IgG dilutions were allowed to block in PBS-M for 1 hour at room temperature before being used directly in ELISA experiments.
(§2) Streptavidin plates (Thermo Scientific, AB-1226) were coated with biotinylated antigen at 0.5 μg/ml in PBS and incubated overnight at 4° C. Plates were washed 3× with PBS and blocked with 300 μl/well blocking buffer (PBS-M) for 1 hour. Plates were washed 1× with PBS and blocked samples added, 50 μl/well for 1 hour at room temperature. […] Plates were washed 3× with PBS-T and developed with TMB, 50 μl/well (Sigma, T0440). The reaction was quenched with 50 μl/well 0.1M H2504 before reading on an EnVision™ plate reader, or similar equipment, at 450 nm.
(§3) Species cross-reactivity of anti-IL-33 antibodies was determined using a plate-based ELISA. Streptavidin plates (Thermo Scientific, AB-1226) were coated with biotinylated antigen at 0.5 μg/ml in PBS. Binding of purified IgG preparations was detected with anti-human IgG HRP (Sigma, A0170).

Human IL-33 Flag®His [5] = biological target: T1, Human IL-33 Flag®His; assay: as above
Method: as §1, §2, §3

Mouse IL-33 Flag®His = biological target: T4, Mouse IL-33 Flag®His (mouse); assay: as above
T4 construct: C-terminal FLAG 10xHis tag, E. coli; also called Mature Mouse IL-33_FH; mouse IL-33 FH
T4 chain: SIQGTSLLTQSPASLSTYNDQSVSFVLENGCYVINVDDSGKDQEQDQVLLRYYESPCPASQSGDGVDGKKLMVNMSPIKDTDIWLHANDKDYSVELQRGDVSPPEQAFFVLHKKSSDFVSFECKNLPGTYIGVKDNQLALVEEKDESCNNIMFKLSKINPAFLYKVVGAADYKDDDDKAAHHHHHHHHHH
Method: as §1, §2, §3

His10/Avi Human IL33-01 [6] = biological target: T5, His10/Avi Human IL33-01 (human); assay: cell-based or functional assay
T5 chain: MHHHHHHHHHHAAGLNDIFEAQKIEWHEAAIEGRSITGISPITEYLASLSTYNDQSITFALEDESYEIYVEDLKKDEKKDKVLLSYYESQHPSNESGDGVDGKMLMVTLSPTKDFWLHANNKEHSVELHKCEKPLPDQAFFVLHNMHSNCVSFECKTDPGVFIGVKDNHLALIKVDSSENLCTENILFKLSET

His10/Avi Human IL33-01 [7] = biological target: T5, His10/Avi Human IL33-01; assay: cell-based or functional assay
[8] = biological target: T6, Full-length human IL-33 (amino acids 1-270), HEK293-EBNA cell lysate (human, UniProt O95760 1-270); assay: cell-based or functional assay
T6 sequence (looked up): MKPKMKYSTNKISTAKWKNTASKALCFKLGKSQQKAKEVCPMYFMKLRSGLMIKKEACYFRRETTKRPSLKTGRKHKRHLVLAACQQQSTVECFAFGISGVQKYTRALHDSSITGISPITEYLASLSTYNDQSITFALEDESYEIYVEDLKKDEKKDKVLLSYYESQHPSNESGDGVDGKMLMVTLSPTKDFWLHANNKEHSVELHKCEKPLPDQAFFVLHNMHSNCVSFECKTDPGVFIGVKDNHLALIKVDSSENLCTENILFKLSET

His10/Avi Human IL33-01 [9] = biological target: T5, His10/Avi Human IL33-01; assay: HTRF epitope competition, IgG titrated; competitor DyLight labelled 33_640117 IgG; overnight
Method: (§4) As the epitope competition assay utilising 33_640027 reached its limit of sensitivity, an assay using 33_640117 was used for testing purified scFv samples. The assay was essentially as described for the 33v20064 competition assay with the following modifications: 2.5 nM DyLight labelled 33_640117 was prepared and 2.5 microlitres added to the assay plates. This was followed by the addition of 2.5 microlitres of a solution containing 0.12 nM biotinylated human IL-33-01 combined with 0.75 nM streptavidin cryptate detection (Cisbio International, 610SAKLB) for the human assay or a solution containing 0.24 nM biotinylated cynomolgus IL-33 combined with 1.5 nM streptavidin cryptate detection (Cisbio International, 610SAKLB) for the cynomolgus assay. Fluorescence was read after one hour and overnight incubation.
(§5) The ability of anti-IL-33 antibodies to inhibit the binding of biotinylated His Avi human IL-33 or cynomolgus His Avi IL-33 to the DyLight labelled 33_640117 IgG was assessed in a biochemical HTRF® (Homogeneous Time-Resolved Fluorescence, Cisbio International) competition assays as described above.

His10/Avi Human IL33-01 [10] = biological target: T5, His10/Avi Human IL33-01; assay: HTRF epitope competition, IgG titrated; competitor DyLight labelled 33_640117 IgG; 1 hour
Method: as §4, §5

His10/Avi Cyno IL-33 = biological target: T7, His10/Avi Cyno IL-33 (cynomolgus monkey); assay: as above
T7 construct: also called Cynomolgus 10His Avitag IL-33; biotinylated His Avi cynomolgus IL-33
T7 chain: T5 chain with E77K, N94S, H118Q, M146R, H147S, S148F, S177Y, C182G, T183S, T193I
Method: as §4, §5

IC50, human ST2 transfected HeLa NFkB luciferase reporter assay (Human IL-33 Flag®His [1]): 147 nM
IC50 (Human IL-33 Flag®His [2]): 40 nM
B1: IL330020 IgG1 (antibody, V domains shown)
VH: QVQLVQSGAEVKKPGASVKVSCKASGYTFTSYGISWVRQAPGQGLEWMGWISDYQGYTKYAEKFQGRVTMTTDTSTNTAYMELRSLRSDDTAVYYCARLYSSGWIRQYHFDYWGRGTLVTVSS
VL: SYELTQPPSVSVSPGQTASITCSGDNLKDKYVSWYQQKPGQAPVLVLYQDRKRPSGIPERFSGSNSGNTATLTISGTQAMDEADYYCQAWDSGTAFGGGTKVTVL
notes: Human IgG1, lambda constant

IC50, Mast cell IL-6 production [3]: 1220 nM
EC50 [4]: 0.35 nM
EC50 (Human IL-33 Flag®His [5]): 0.4 nM
EC50 (Mouse IL-33 Flag®His): 0.38 nM
B2: IL330099 IgG (antibody, V domains shown)
VH: QVQLQQSGAEVKKPGASVKVSCKASGYTFTSFYMNWVRQAPGQGLEWMGIISPRGGTTSYAQNFQGRVTMTRDTSTSTVYMELSGLRSDDTAVYYCATESFYYGSGTYSGDYYLYSGMADWGKGTLVTVSS
VL: SSELTQDPAVSAALGQTVRITCQGDSLRSYYASWYQQKPGQAPVLVIYGKNDRPSGIPDRFSGSSSGNTASLTITGAQAEDEADYYCNSRDSSGNHVVFGGGTKLTVL
notes: IgG1 or IgG1-TM

IC50, Mast cell IL-6 production [3]: 298 nM
EC50 [4]: 0.35 nM
EC50 (Human IL-33 Flag®His [5]): 0.23 nM
EC50 (Mouse IL-33 Flag®His): 0.17 nM
B6: IL330149 IgG (antibody, V domains shown)
VH: EVQLLESGGGLVQPGGSLRLSCAASGFTFSSYAMSWVRQAPGKGLEWVSAISGSGGSTYYADSVKGRFTISRDNSKNTLYLQMNSLRAEDTAVYYCVRTLAYSTSWFFDYWGRGTLVTVSS
VL: SYELTQPPAVSVSPGQTARITCSGDALPKKYAYWYQQKSGQAPVLVIYEDAKRPSGIPERFSGSSSGTMATLTVSGAQVEDEADYYCYSTDSSGPVFGGGTKLTVL
notes: IgG1 or IgG1-TM; also called IL33149

Second part, the binder before the results:

B3: 33_640237-2 IgG1 (antibody, V domains shown)
VH: EVQLLESGGGLVQPGGSLRLSCAASGFTFSSYAMSWVRQAPGKGLEWVSGIADDFTSTYYADPVKGRFTISRDNSKNTLYLQMNSLRAEDTAVYYCARDLWMMNYAGGLRYPFGYWGQGTMVTVSS
VL: SYVLTQPPSVSVSPGQTASITCSGERMGDKYAAWYQQKPGQSPVLVIYRDTKRPSGIPERFSGSNSGNTATLTISGTQAMDEADYYCGVLKQDTGVFGGGTKVTVL
IC50 (nM) vs. His Avi IL-33, Huvec IL-8 assay (His10/Avi Human IL33-01 [6]): 0.105 nM

B4: 33_640201 IgG1 (antibody, V domains shown)
VH: EVQLLESGGGLVQPGGSLRLSCAASGFTFSSYAMSWVRQAPGKGLEWVSSIDAISSSTYYADSVKGRFTISRDNSKNTLYLQMNSLRAEDTAVYYCSRQKFMQLWGGGLRYPFGYWGQGTMVTVSS
VL: B3 VL with R49Q, M80V
notes: IgG1; also called ZZ1JMY-H09
IC50, Huvec IL-8 assay vs. His Avi IL-33 (His10/Avi Human IL33-01 [7]): 0.046 nM
IC50, Huvec IL-8 assay vs. full length IL-33 cell lysate [8]: 0.101 nM
IC50 (His10/Avi Human IL33-01 [9]): 0.2 nM
IC50 (His10/Avi Human IL33-01 [10]): 0.2 nM
IC50 (His10/Avi Cyno IL-33): 0.3 nM

B5: 33_640087-7 IgG1 (antibody, V domains shown)
VH: B4 VH with S50G, D52S, S55D, S56Q, S97A
VL: B3 VL with R26G, L90I, K91Q, Q92D, D93N
notes: IgG1
IC50, Huvec IL-8 assay vs. His Avi IL-33 (His10/Avi Human IL33-01 [7]): 0.025 nM
IC50, Huvec IL-8 assay vs. full length IL-33 cell lysate [8]: 0.073 nM
IC50 (His10/Avi Human IL33-01 [9]): 0.1 nM
IC50 (His10/Avi Human IL33-01 [10]): 0.1 nM
IC50 (His10/Avi Cyno IL-33): 0.2 nM
IC50 (nM) vs. His Avi IL-33, Huvec IL-8 assay (His10/Avi Human IL33-01 [6]): 0.041 nM

— patent publication US20200353078A1 (AstraZeneca / MedImmune, published 2020)
